Data on one molecule can be found in patent US20070299011A1 (TSINGHUA UNIVERSITY, published 2007).

For the experiment, the target named is T1, myc-tagged APP-AICD(C99) (UniProt P05067 672-770).
T1 construct: domain: APP-AICD(C99); also called APP-AID(C99); not shown: myc tag
Briefly: co-IP from 293T lysate: anti-myc IP, anti-HA Western blot. In general terms: In western blotting, separated proteins are transferred to a membrane and probed.

B1: HA-168 deletion mutant 118-264AA (other)
chain: GHPPTALESVMLGVGSRSVAGVCMSPITVIKTRYESGKYGYESIYAALRSIYHSEGHRGLFSGLTATLLRDAPFSGIYLMFYNQTKNIVPHDQVDATLIPITNFSCGIFAGILASLVTQPAGVIKTHMQLYPLKFQWIGQAVTLIFK
notes: not shown: HA tag
On to B1, for which the binding result is on record as “binds”.
